Laboratory results from patent US8603949B2, “Libraries of optimized cytochrome P450 enzymes and the optimized P450 enzymes” (California Institute of Technology, priority 2003, dated 2013).
Counter-ions that a name gives are not always drawn.

Tests used:
Mammalian P450 = conditions: cited from earlier work
[1] = Thermostability (loss of Soret band at increasing temperatures); format: physicochemical; conditions: cell extracts heated 10 minutes
Experimental: Thermostability was assayed by monitoring the loss of the Soret band at increasing temperatures. […] However, thermostability may be important for retention of catalytic activity: the two chimeras that lacked peroxygenase activity were also the least thermostable.
Cell extracts were heated in a thermocycler for 10 minutes at various temperatures, followed by cooling to 4° C. Extracts were centrifuged for 5 minutes at 3500×g to remove any precipitates. Carbon monoxide reduced difference spectroscopy was used to quantitate the amount of P450. The reduction of the carbon monoxide peak was monitored over a range of temperatures.

[2] = Peroxidase activity with ABTS and H2O2; format: biochemical; conditions: for Peroxidase activity: 10 mM ABTS, 20 mM H2O2, pH 5.0, activities <0.2 not detectable (N.D.); for peroxidase activity relative to parents: ABTS
Text: P450s can reduce peroxide to water (and a proton) using a mechanism similar to that of peroxidases, although the intrinsic rate for P450s is many orders of magnitude slower. (Mansuy, D., Comp Biochem Physiol C Pharmacol Toxicol Endocrinol 121, 5-14 (1998)). It has been proposed that the earliest P450 function may have been as a peroxidase. (Gotoh, O., Cytochrome P450, 2nd Edition, pp. 255-272 (1993)). To investigate how recombination affects P450 peroxidase activity, the colorimetric substrate 2,2′-azino-bis(3-ethylbenzothiazoline-6-sulfonate) (ABTS) was used to monitor this reaction (Childs et al., Biochem J 145,93-103 (1975)).
This example provides an example of how one can measure peroxidase activity. Initial rates of peroxidase activity were measured by monitoring the accumulation of the radical cation of ABTS at 414 nm (Childs et al., Biochem J., 145:93-103 (1975)). Enzyme (1 μM) was mixed with 10 mM ABTS in 200 mM phosphate buffer (pH 5.0) in a cuvette at room temperature. Samples were zeroed and reactions were initiated with the addition of H2O2 to a concentration of 20 mM. The absorbance at 414 nm was monitored for 5 minutes. Rates were determined from the steepest portion of the time course. An extinction coefficient of […] for ABTS was used.

[3] = Peroxygenase substrate activity profile; format: biochemical; conditions: 20 mM H2O2
Experimental: The chimeras were assayed for hydroxylation of p-nitrophenoxydodecanoic acid (12-pNCA), a fatty acid analog that is hydroxylated by CYP102A1 and CYP102A2 to yield p-nitrophenolate (Schwaneberg et al., Anal Biochem 269,359-366 (1999)). […] When hydroxylation rates for the parent CYP102 enzymes were monitored using the maximum soluble concentrations of these substrates, activity could only be detected on 2-phenoxy-ethanol.
Chimeras were assayed for peroxygenase activity on 12-pNCA, 2-phenoxy -ethanol and allyloxy-benzene. […] Rates are reported in nmol product/nmol P450/minute. […] Those with no activity include 65-256 and 277-365. Those with new activity include 165-256, 191-335, and 43-135.
This Example provides one method by which peroxygenase activity of a P450 enzyme may be characterized. First order rates for p-nitrophenolate accumulation were determined using 1 μM enzyme, 20 mM H2O2, 250 μM 12-pNCA and 0.5% dimethyl sulfoxide (DMSO) in 100 mM Tris-HCl (pH 8.2) at room temperature. Enzyme, substrate, buffer and DMSO were combined in a cuvette and zeroed at 410 nm. Reaction mixtures were incubated for 4 minutes and initiated by the addition of H2O2 to a final concentration of 20 mM. Initial rates were determined by monitoring the accumulation of p-nitrophenolate at 410 nm, and data from the first six seconds were used to determine initial rates. […] The extinction coefficient of p-nitrophenolate is 13,200 M^−1cm^−1 (Schwaneberg et al., Anal Biochem 269:359-366 (1999)).
Rates on 2-phenoxy-ethanol and allyloxy-benzene were determined using 2 μM enzyme, 20 mM H2O2, 1% DMSO, and 1% acetone in 100 mM N-[2-hydroxyethyl]piperazine-N′-[3-propanesulfonic acid] (Epps) (pH 8.2) at room temperature. Substrate concentrations for 2-phenoxy-ethanol (100 mM) and allyloxy benzene (50 mM) maintained saturation. Reactions were initiated by the addition of H2O2 and quenched at appropriate times using an equal volume of a solution containing 4M urea and 100 mM NaOH. 120 μl of 0.6% 4-AAP was added, followed by mixing and addition of 120 μl of 0.6% potassium persulfate. Color was allowed to develop for 20 minutes before absorbance was read at 500 nm. Rates were determined from the linear region of the time course. The major products were determined by GC/MS to be the hemiacetal, which decomposes to phenol. The extinction coefficient for the 4-AAP/phenol complex was determined to be 4,800 M^−1cm^−1. The results can be seen in FIG. 4.

In the case of `Nc1ccc(-c2ccccc2)cc1` [4-aminobiphenyl], the “Mammalian P450 (main mammalian P450 responsible for breakdown)” value (shortened to “Mammalian P450”) (Mammalian P450) is given as “CYP1A2”.

For `O=C(O)Cc1ccccc1Nc1c(Cl)cccc1Cl` [Diclofenac], the “Mammalian P450” value (Mammalian P450) is given as “CYP2C9”.

For `Nc1c2c(nc3ccccc13)CCCC2` [Tacrine, 9-amino-1,2,3,4-tetrahydroacridine hydrochloride hydrate], the “Mammalian P450” value (Mammalian P450) is given as “CYP1A2”.

For `CCCCNC(=O)NS(=O)(=O)c1ccc(C)cc1` [Tolbutamide], the “Mammalian P450” value (Mammalian P450) is listed as “CYP2C9”.

In the case of `COc1ccc(C(c2ccc(OC)cc2)C(Cl)(Cl)Cl)cc1` [methoxychlor], the “Mammalian P450” value (Mammalian P450) is listed as “CYP2B6”.

B1: Chimera 118-194: CYP102A1 heme domain with residues 118-194 from CYP102A2 (protein)
chain: TIKEMPQPKTFGELKNLPLLNTDKPVQALMKIADELGEIFKFEAPGRVTRYLSSQRLIKEACDESRFDKNLSQALKFVRDFAGDGLATSWTHEKNWKKAHNILLPSFSQQAMKGYHAKMVDIAVQLIQKWARLNPNEAVDVPGDMTRLTLDTIGLCGFNYRFNSYYRETPHPFINSMVRALDEAMHQMQRLDVQDPAYDENKRQFQEDIKVMNDLVDKIIADRKASGEQSDDLLTHMLNGKDPETGEPLDDENIRYQIITFLIAGHETTSGLLSFALYFLVKNPHVLQKAAEEAARVLVDPVPSYKQVKQLKYVGMVLNEALRLWPTAPAFSLYAKEDTVLGGEYPLEKGDELMVLIPQLHRDKTIWGDDVEEFRPERFENPSAIPQHAFKPFGNGQRACIGQQFALHEATLVLGMMLKHFDFEDHTNYELDIKETLTLKPEGFVVKAKSKKIPLGGIPSPST
modifications: Chimeric Cytochrome P450 heme group sequence from Bacillus megaterium and Bacillus subtilis
notes: CYP102A1 heme domain with residues 118-194 from CYP102A2
For B1, the Tm [1] was 47 °C, the Peroxidase activity [2] was 34.3 nmol product/nmol P450/min and the “peroxidase activity relative to parents” value [2] was “significantly higher peroxidase activities”. For the same molecule, the “substrate activity profile relative to parents” value [3] was “parent-like profiles”.

B2: Chimera 277-365: CYP102A1 heme domain with residues 277-365 from CYP102A2 (protein)
chain: TIKEMPQPKTFGELKNLPLLNTDKPVQALMKIADELGEIFKFEAPGRVTRYLSSQRLIKEACDESRFDKNLSQALKFVRDFAGDGLATSWTHEKNWKKAHNILLPSFSQQAMKGYHAMMVDIAVQLVQKWERLNADEHIEVPEDMTRLTLDTIGLCGFNYRFNSFYRDQPHPFITSMVRALDEAMNKLQRANPDDPAYDENKRQFQEDIKVMNDLVDKIIADRKASGEQSDDLLTHMLNGKDPETGEPLDDENIRYQIITFLIAGHETTSGLLSFATYFLLKHPDKLKKAYEEVDRVLTDAAPTYKQVLELTYIRMILNESLRLWPTAPAFSLYPKEDTVIGGKFPITTNDRISVLIPQLHRDRDIWGDDVEEFRPERFENPSAIPQHAFKPFGNGQRACIGQQFALHEATLVLGMMLKHFDFEDHTNYELDIKETLTLKPEGFVVKAKSKKIPLGGIPSPST
modifications: Chimeric Cytochrome P450 heme group sequence from Bacillus megaterium and Bacillus subtilis
notes: CYP102A1 heme domain with residues 277-365 from CYP102A2
In the case of B2, the Tm [1] is reported as 39 °C, the “peroxidase activity relative to parents” value [2] is reported as “no detectable peroxidase activity” and the “substrate activity profile relative to parents” value [3] is reported as “no activity”.

B3: Chimera 65-256: CYP102A1 heme domain with residues 65-256 from CYP102A2 (protein)
chain: TIKEMPQPKTFGELKNLPLLNTDKPVQALMKIADELGEIFKFEAPGRVTRYLSSQRLIKEACDEERFDKSIEGALEKVRAFSGDGLATSWTHEPNWRKAHNILMPTFSQRAMKDYHEKMVDIAVQLIQKWARLNPNEAVDVPGDMTRLTLDTIGLCGFNYRFNSYYRETPHPFINSMVRALDEAMHQMQRLDVQDKLMVRTKRQFRYDIQTMFSLVDSIIAERRANGDQDEKDLLARMLNVEDPETGEKLDDENIRFQIITFLIAGHETTSGLLSFALYFLVKNPHVLQKAAEEAARVLVDPVPSYKQVKQLKYVGMVLNEALRLWPTAPAFSLYAKEDTVLGGEYPLEKGDELMVLIPQLHRDKTIWGDDVEEFRPERFENPSAIPQHAFKPFGNGQRACIGQQFALHEATLVLGMMLKHFDFEDHTNYELDIKETLTLKPEGFVVKAKSKKIPLGGIPSPST
modifications: Chimeric Cytochrome P450 heme group sequence from Bacillus megaterium and Bacillus subtilis
notes: CYP102A1 heme domain with residues 65-256 from CYP102A2
With B3 the Tm [1] was 36 °C, the “peroxidase activity relative to parents” value [2] was “no detectable peroxidase activity” and the “substrate activity profile relative to parents” value [3] was “no activity”.

B4: Chimera 285-341: CYP102A1 heme domain with residues 285-341 from CYP102A2 (protein)
chain: TIKEMPQPKTFGELKNLPLLNTDKPVQALMKIADELGEIFKFEAPGRVTRYLSSQRLIKEACDESRFDKNLSQALKFVRDFAGDGLATSWTHEKNWKKAHNILLPSFSQQAMKGYHAMMVDIAVQLVQKWERLNADEHIEVPEDMTRLTLDTIGLCGFNYRFNSFYRDQPHPFITSMVRALDEAMNKLQRANPDDPAYDENKRQFQEDIKVMNDLVDKIIADRKASGEQSDDLLTHMLNGKDPETGEPLDDENIRYQIITFLIAGHETTSGLLSFALYFLVKNPDKLKKAYEEVDRVLTDAAPTYKQVLELTYIRMILNESLRLWPTAPAFSLYPKEDTVIGGEYPLEKGDELMVLIPQLHRDKTIWGDDVEEFRPERFENPSAIPQHAFKPFGNGQRACIGQQFALHEATLVLGMMLKHFDFEDHTNYELDIKETLTLKPEGFVVKAKSKKIPLGGIPSPST
modifications: Chimeric Cytochrome P450 heme group sequence from Bacillus megaterium and Bacillus subtilis
notes: CYP102A1 heme domain with residues 285-341 from CYP102A2
In the case of B4, the Tm [1] is reported as 53 °C, the Peroxidase activity [2] is reported as 2.1 nmol product/nmol P450/min and the “substrate activity profile relative to parents” value [3] is reported as “parent-like profiles”.

B5: Chimera 50-140: CYP102A1 heme domain with residues 50-140 from CYP102A2 (protein)
chain: TIKEMPQPKTFGELKNLPLLNTDKPVQALMKIADELGEIFKFEAPGRVTIVVSGHELVKEVCDEERFDKSIEGALEKVRAFSGDGLATSWTHEPNWRKAHNILMPTFSQRAMKDYHEKMVDIAVQLIQKWARLNPNEAVDVPEDMTRLTLDTIGLCGFNYRFNSFYRDQPHPFITSMVRALDEAMNKLQRANPDDPAYDENKRQFQEDIKVMNDLVDKIIADRKASGEQSDDLLTHMLNGKDPETGEPLDDENIRYQIITFLIAGHETTSGLLSFALYFLVKNPHVLQKAAEEAARVLVDPVPSYKQVKQLKYVGMVLNEALRLWPTAPAFSLYAKEDTVLGGEYPLEKGDELMVLIPQLHRDKTIWGDDVEEFRPERFENPSAIPQHAFKPFGNGQRACIGQQFALHEATLVLGMMLKHFDFEDHTNYELDIKETLTLKPEGFVVKAKSKKIPLGGIPSPST
modifications: Chimeric Cytochrome P450 heme group sequence from Bacillus megaterium and Bacillus subtilis
notes: CYP102A1 heme domain with residues 50-140 from CYP102A2
With B5 the Tm [1] was 52 °C, the Peroxidase activity [2] was 10.4 nmol product/nmol P450/min and the “peroxidase activity relative to parents” value [2] was “significantly higher peroxidase activities”. The “substrate activity profile relative to parents” value [3] was “parent-like profiles”.
